Data on 38 sequences can be found in the supplement of paper PMC7877785.

± gives the uncertainty stated by the source.

This series can be described thus: self-splicing fitness, log relative to wild type (ln ratio); higher = more splicing; Tetrahymena group I intron in knt gene, E. coli kanamycin selection, DiMSum; sequences stand for … in CUCUCU…GGAGGGAAAAGUUAUCAGGCAUGCACCUGGUAGCUAGUCUUUAAACCAAUAGAUUGCAUCGGUUUAAAAGGCAAGACCGUCAAAUUGCGGGAAAGGGGUCAACAGCCGUUCAGUACCAAGUCUCAGGGGAAACUUUGAGAUGGCCUUGCAAAGGGUAUGGUAAUAAGCUGACGGACAUGGUCCUAACCACGCAGCCAAGUCCUAAGUCAACAGAUCUUCUGUUGAUAUGGAUGCAGUUCACAGACUAAAUGUCGGUCGGGGAAGAUGUAUUCUUCUCAUAAGAUAUAGUCGGACCUCUCCUUAAUGGGAGCUAGCGGAUGAAGUGAUGCAACACUGGAGCCGCUGGGAACUAAUUUGUAUGCGAAAGUAUAUUGAUUAGUUUUGGAGUACUCGUGGUCG
The gist of the method:
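A randomised library covering all eight P1ex-region intron nucleotides was built with the intron in the knt kanamycin-resistance gene on pET-22b(+) and held in E. coli BL21(DE3). Cells were grown overnight at 37°C or 30°C on LB agar, with or without 25 μg/mL kanamycin, plus 100 μg/mL carbenicillin, 50 μM IPTG and 0.2% rhamnose, and pooled colonies were amplicon-sequenced on an Illumina HiSeq 2500. DiMSum fitness is the error-weighted combination of wild-type-normalised replicate fold changes, kanamycin versus none.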

For the sequence UAAAAGCAAUAUUACGGUCU, the “self-splicing fitness (ln)” value (30 °C) was -1.83 ± 0.076 and the “self-splicing fitness (ln)” value (37 °C) is -0.678 ± 0.079. For the sequence UAAAAGCAAUAUUACGGUUA, the “self-splicing fitness (ln)” value was 0.139 ± 0.067 (30 °C) and 0.222 ± 0.079 (37 °C). The corresponding values for UAAAAGCAAUAUUACGUACG are -0.745 ± 0.084 and 0.35 ± 0.12. As for UAAAAGCAAUAUUACGUCCC, the “self-splicing fitness (ln)” value was -2.74 ± 0.32 (30 °C) and -0.909 ± 0.24 (37 °C).

For the sequence UAAAAGCAAUAUUACGUCGG, the “self-splicing fitness (ln)” value is -0.992 ± 0.097 (30 °C) and -0.876 ± 0.12 (37 °C).

On to UAAAAGCAAUAUUACGUGCC, for which the “self-splicing fitness (ln)” value is, setting by setting: (30 °C) -2.01 ± 0.092; (37 °C) -1.26 ± 0.12.

Turning to UAAAAGCAAUAUUACGUGCU, the “self-splicing fitness (ln)” value runs as follows: (30 °C) -2.62 ± 0.1; (37 °C) -1.56 ± 0.11.

UAAAAGCAAUAUUACGUUCC: the “self-splicing fitness (ln)” value runs as follows: (30 °C) -3.46 ± 0.3; (37 °C) -2.57 ± 0.29.

On to UAAAAGCAAUAUUACGUUGA, for which the “self-splicing fitness (ln)” value (30 °C) was -2.41 ± 0.11 and the “self-splicing fitness (ln)” value (37 °C) is -1.46 ± 0.11. On the same counts, the results for UAAAAGCAAUAUUACGUUUA are -1.14 ± 0.099 and -0.871 ± 0.099.

Turning to UAACAGCAAUAUUACGAACC, the “self-splicing fitness (ln)” value reads like this: (30 °C) -2.12 ± 0.17; (37 °C) -1.73 ± 0.24. On the same counts, the results for UAACAGCAAUAUUACGAACG are -0.391 ± 0.078 and 0.172 ± 0.11. The corresponding values for UAACAGCAAUAUUACGACAU are -1.139 ± 0.011 and -0.372 ± 0.032. UAACAGCAAUAUUACGAGUA: the “self-splicing fitness (ln)” value was -0.835 ± 0.099 (30 °C) and 0.134 ± 0.099 (37 °C). The corresponding values for UAACAGCAAUAUUACGAUGU are -2.73 ± 0.13 and -2.08 ± 0.14. On the same counts, the results for UAACAGCAAUAUUACGCACC are -2.33 ± 0.29 and -1.88 ± 0.43. On the same counts, the results for UAACAGCAAUAUUACGCCCC are -1.03 ± 0.28 and -0.834 ± 0.47.

On to UAACAGCAAUAUUACGCCGA, for which the “self-splicing fitness (ln)” value runs as follows: (30 °C) -1.95 ± 0.11; (37 °C) -0.415 ± 0.089.

As to UAACAGCAAUAUUACGCCGU, the “self-splicing fitness (ln)” value is -3.54 ± 0.24 (30 °C) and -1.94 ± 0.19 (37 °C). On to UAACAGCAAUAUUACGCUCU, for which the “self-splicing fitness (ln)” value by setting is: (30 °C) -1.12 ± 0.073; (37 °C) -0.498 ± 0.08. UAACAGCAAUAUUACGCUGC: the “self-splicing fitness (ln)” value reads like this: (30 °C) -2.45 ± 0.3; (37 °C) -1.92 ± 0.28.

Consider UAACAGCAAUAUUACGGAUG, for which the “self-splicing fitness (ln)” value (30 °C) is -1.51 ± 0.053 and the “self-splicing fitness (ln)” value (37 °C) is -0.304 ± 0.063. UAACAGCAAUAUUACGGGUG: the “self-splicing fitness (ln)” value runs as follows: (30 °C) -0.577 ± 0.049; (37 °C) -0.256 ± 0.068. The corresponding values for UAACAGCAAUAUUACGGUAC are -3.84 ± 0.2 and -2.06 ± 0.13. Consider UAACAGCAAUAUUACGGUCG, for which the “self-splicing fitness (ln)” value runs as follows: (30 °C) -0.363 ± 0.04; (37 °C) -0.0859 ± 0.056.

In the case of UAACAGCAAUAUUACGUAAG, the “self-splicing fitness (ln)” value by setting is: (30 °C) -1.46 ± 0.07; (37 °C) -1.25 ± 0.084.

For the sequence UAACAGCAAUAUUACGUACA, the “self-splicing fitness (ln)” value runs as follows: (30 °C) -0.576 ± 0.071; (37 °C) -0.319 ± 0.092. For the sequence UAACAGCAAUAUUACGUCCG, the “self-splicing fitness (ln)” value was -0.0665 ± 0.086 (30 °C) and 0.0833 ± 0.12 (37 °C). On the same counts, the results for UAACAGCAAUAUUACGUGCG are -0.551 ± 0.072 and 0.0501 ± 0.085. The corresponding values for UAACAGCAAUAUUACGUGGA are -3.11 ± 0.14 and -1.44 ± 0.08. For the sequence UAACAGCAAUAUUACGUUAC, the “self-splicing fitness (ln)” value by setting is: (30 °C) -3.91 ± 0.2; (37 °C) -3.09 ± 0.24. As to UAAGAGCAAUAUUACGAAAU, the “self-splicing fitness (ln)” value (37 °C) is -1.61 ± 0.32. Take UAAGAGCAAUAUUACGAAGU: the “self-splicing fitness (ln)” value reads like this: (30 °C) -3.61 ± 0.31; (37 °C) -1.85 ± 0.41. For the sequence UAAGAGCAAUAUUACGAAUC, the “self-splicing fitness (ln)” value was -2.87 ± 0.29 (30 °C) and -1.79 ± 0.35 (37 °C). For UAAGAGCAAUAUUACGACGG, the “self-splicing fitness (ln)” value reads like this: (30 °C) -3.85 ± 0.26; (37 °C) -2.54 ± 0.21.

As for UAAGAGCAAUAUUACGAGAG, the “self-splicing fitness (ln)” value reads like this: (30 °C) -2.23 ± 0.38; (37 °C) -1.95 ± 0.36. On the same counts, the results for UAAGAGCAAUAUUACGAGCA are -3.18 ± 0.29 and -0.84 ± 0.14. On the same counts, the results for UAAGAGCAAUAUUACGAGGA are -3.37 ± 0.29 and -2.25 ± 0.35.
